Reference: patent US20100077498A1 (published 2010)
“And” between values parts separate entries of the source, which are not always exact repeats. Equal values may be shown once. Blank lines part the entries; values can stand above or below the binder they belong to.

What was measured:
[1] = target: T1, mouse transferrin receptor (mouse, UniProt Q62351 1-763); test: radio-receptor assay on mouse fibroblasts, 4 C, displacement of [125I]-8D3 by unlabeled cTfRMAb, non-linear regression
T1 construct: whole, on cells; Mouse fibroblasts were the source of the mouse TfR in the radio-receptor assay; also called mouse TfR; TfR
Description: (§1) Mouse TfR radio-receptor assay. Mouse fibroblasts were plated in 24-well cluster dishes (100,000 cells/well) 24 hours before the radio-receptor assay (RRA) of TfRMAb binding to the mouse TfR. The medium was aspirated, the cells washed with phosphate buffered saline (PBS), and 500 μL was added to each well containing 0.15 μCi/mL of [¹²⁵I]-labeled rat 8D3 MAb, and 0.3 to 100 nM concentrations of either unlabeled rat 8D3 MAb or unlabeled cTfRMAb. Following incubation at 4 C for 120 min, the medium was aspirated, the plates washed with cold PBS containing 1% bovine serum albumin (BSA), and the monolayer was lysed with 0.2 mL/well of 1 N NaOH. An aliquot was removed for protein measurement using the bicinchoninic acid (BCA) assay, and the radioactivity in the lysate was determined with a Beckmann gamma counter. The % bound/mg protein was computed from the radioactivity in the cell lysate and the total radioactivity in the medium. The 8D3 self-inhibition binding data were fit by non-linear regression analysis yield either the KD of 8D3 self-inhibition in the binding assay, or the KI of cross-inhibition by the chimeric TfRMAb or the cTfRMAb fusion protein.

[2] = target: T1, mouse transferrin receptor; test: radio-receptor assay on mouse fibroblasts, 4 C, self-inhibition of [125I]-8D3 by unlabeled 8D3, non-linear regression
Description: as §1

[3] = target: T1, mouse transferrin receptor; test: radio-receptor assay on mouse fibroblasts, self-inhibition of [125I]-8D3, non-linear regression
Description: as §1
(§2) Mouse fibroblasts were used as the source of the mouse TfR, and the ¹²⁵I-labeled rat 8D3 TfRMAb was used as the binding ligand. […]

[4] = target: T2, fusion protein of human Fc and the human GFRalpha1 extracellular domain (human, UniProt P56159 25-429, limits assumed); test: ELISA: GFRα1:Fc captured by mouse anti-human Fc, detection with goat anti-GDNF and rabbit anti-goat-AP; given as ED50
T2 construct: extracellular domain; Captured on ELISA wells by a mouse anti-human Fc antibody; The order of the parts follows the printed name GFRα1:Fc; also called GFRα1:Fc fusion protein; GFRα1 ECD; not shown: human Fc
T2 sequence (looked up): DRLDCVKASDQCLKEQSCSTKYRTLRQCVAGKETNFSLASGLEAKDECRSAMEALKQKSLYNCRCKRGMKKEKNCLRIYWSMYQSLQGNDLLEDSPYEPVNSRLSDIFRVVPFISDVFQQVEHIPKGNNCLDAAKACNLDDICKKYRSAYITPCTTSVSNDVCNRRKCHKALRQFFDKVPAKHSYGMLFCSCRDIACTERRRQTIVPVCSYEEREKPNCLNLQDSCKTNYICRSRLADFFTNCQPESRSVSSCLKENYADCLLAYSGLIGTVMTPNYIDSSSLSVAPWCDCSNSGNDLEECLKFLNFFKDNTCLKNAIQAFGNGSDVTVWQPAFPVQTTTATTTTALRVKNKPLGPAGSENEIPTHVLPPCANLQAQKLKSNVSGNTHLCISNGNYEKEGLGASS
Text: FIG. 10. (A) Outline of GFRα1 receptor binding assay. The GFRα1:Fc fusion protein is captured by a mouse anti-human (MAH) Fc antibody. The GDNF, or cTfRMAb-GDNF fusion protein, binds to the GFRα1, and this binding is detected with a goat anti-GDNF antibody and a rabbit anti-goat (RAG) antibody conjugated to alkaline phosphatase (AP). (B) Binding of either GDNF (top panel) or the cTfRMAb-GDNF fusion protein (bottom panel) to the GFRα1 extracellular domain (ECD) is saturable.
The cTfRMAb-GDNF fusion protein is a bi-functional molecule that binds 2 receptors (FIG. 8): (i) the brain capillary endothelial mouse TfR to cause RMT across the mouse BBB in vivo, and (ii) the GFRα1 on neurons, to cause therapeutic actions in brain behind the BBB. The bi-functionality of the cTfRMAb-GDNF fusion protein was tested with binding assays for both the human GFRα1 and the mouse TfR. A mouse anti-human Fc (MAH-Fc) is plated in ELISA wells and captures a fusion protein of human Fc and the human GFRα1 extracellular domain (ECD). The cTfRMAb-GDNF fusion protein, or mature human GDNF, is then added, and these molecules bind to the GFRα1 ECD in proportion to the affinity for this receptor. The binding of the GDNF or the cTfRMAb-GDNF fusion protein is then detected with a goat anti-GDNF antibody, and a rabbit anti-goat (RAG) IgG-alkaline phosphatase (AP) conjugate (FIG. 10A).

[5] = target: T1, mouse transferrin receptor; test: radio-receptor assay on mouse fibroblasts, displacement of [125I]-8D3 by unlabeled cTfRMAb-GDNF, non-linear regression
Description: as §1, §2

T1 sequence (Q62351 whole entry): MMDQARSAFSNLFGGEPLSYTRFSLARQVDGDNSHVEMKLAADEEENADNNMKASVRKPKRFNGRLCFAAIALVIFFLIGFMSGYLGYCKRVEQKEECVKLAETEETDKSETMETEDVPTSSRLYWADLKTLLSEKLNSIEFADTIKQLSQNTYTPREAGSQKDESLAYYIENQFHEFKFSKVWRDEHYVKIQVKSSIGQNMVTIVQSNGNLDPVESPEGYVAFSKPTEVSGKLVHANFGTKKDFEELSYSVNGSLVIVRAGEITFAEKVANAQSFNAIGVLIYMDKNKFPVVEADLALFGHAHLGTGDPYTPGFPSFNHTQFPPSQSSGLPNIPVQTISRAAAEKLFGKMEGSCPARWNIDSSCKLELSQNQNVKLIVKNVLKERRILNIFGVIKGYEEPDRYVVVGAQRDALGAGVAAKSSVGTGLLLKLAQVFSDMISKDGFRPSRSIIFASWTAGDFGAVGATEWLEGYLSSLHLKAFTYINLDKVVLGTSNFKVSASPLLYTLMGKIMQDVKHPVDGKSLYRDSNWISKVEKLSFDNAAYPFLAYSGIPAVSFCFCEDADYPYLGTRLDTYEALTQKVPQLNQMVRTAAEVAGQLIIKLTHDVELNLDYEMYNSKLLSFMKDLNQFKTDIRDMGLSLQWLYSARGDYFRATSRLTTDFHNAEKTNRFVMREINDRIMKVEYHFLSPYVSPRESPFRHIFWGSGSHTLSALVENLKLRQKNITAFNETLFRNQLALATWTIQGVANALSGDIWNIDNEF

Ki [1]: 2.6 nM
B1: chimeric monoclonal antibody against the mouse transferrin receptor (rat 8D3 variable regions, mouse IgG1/kappa constant regions) (antibody, V domains shown)
VH: EVQLVESGGGLVQPGNSLTLSCVASGFTFSNYGMHWIRQAPKKGLEWIAMIYYDSSKMNYADTVKGRFTISRDNSKNTLYLEMNSLRSEDTAMYYCAVPTSHYVVDVWGQGVSVTVSS
VL: DIQMTQSPASLSASLEEIVTITCQASQDIGNWLAWYQQKPGKSPQLLIYGATSLADGVPSRFSGSRSGTQFSLKISRVQVEDIGIYYCLQAYNTPWTFGGGTKLELKR
notes: also called chimeric TfRMAb; cTfRMAb

Kd [2]: 2.3 nM | Kd [3]: 5 nM and 3.2 nM
B2: rat 8D3 monoclonal antibody against the mouse transferrin receptor, hybridoma generated (antibody, V domains shown)
VH: EVQLVESGGGLVQPGNSLTLSCVASGFTFSNYGMHWIRQAPKKGLEWIAMIYYDSSKMNYADTVKGRFTISRDNSKNTLYLEMNSLRSEDTAMYYCAVPTSHYVVDVWGQGVSVTVSS
VL: DIQMTQSPASLSASLEEIVTITCQASQDIGNWLAWYQQKPGKSPQLLIYGATSLADGVPSRFSGSRSGTQFSLKISRVQVEDIGIYYCLQAYNTPWTFGGGTKLELK
modifications: In part of the assays the antibody carried 125I (radio-iodinated tyrosines); the letters do not show this.
notes: Rat hybridoma antibody purified on protein G; also called 8D3 MAb; 8D3 TfRMAb

EC50 [4]: 1.03 nM
B3: human mature 134 amino acid glial derived neurotrophic factor (ligand, UniProt P39905 78-211, looked up)
chain: SPDKQMAVLPRRERNRQAAAANPENSRGKGRRGQRGKNRGCVLTAIHLNVTDLGLGYETKEELIFRYCSGSCDAAETTYDKILKNLSRNRRLVSDKVGQACCRPIAFDDDLSFLDDNLVYHILRKHSAKRCGCI
notes: mature; also called GDNF; mature human GDNF

EC50 [4]: 2.55 nM | Ki [5]: 3 nM
B4: cTfRMAb-GDNF fusion protein (human mature GDNF fused to the carboxyl terminus of the heavy chain of the chimeric MAb against the mouse TfR) (other)
heavy: EVQLVESGGGLVQPGNSLTLSCVASGFTFSNYGMHWIRQAPKKGLEWIAMIYYDSSKMNYADTVKGRFTISRDNSKNTLYLEMNSLRSEDTAMYYCAVPTSHYVVDVWGQGVSVTVSSAKTTPPSVYPLAPGSAAQTNSMVTLGCLVKGYFPEPVTVTWNSGSLSSGVHTFPAVLQSDLYTLSSSVTVPSSTWPSETVTCNVAHPASSTKVDKKIVPRDCGCKPCICTVPEVSSVFIFPPKPKDVLTITLTPKVTCVVVDISKDDPEVQFSWFVDDVEVHTAQTQPREEQFNSTFRSVSELPIMHQDWLNGKEFKCRVNSAAFPAPIEKTISKTKGRPKAPQVYTIPPPKEQMAKDKVSLTCMITDFFPEDITVEWQWNGQPAENYKNTQPIMDTDGSYFVYSKLNVQKSNWEAGNTFTCSVLHEGLHNHHTEKSLSHSPGSSSSPDKQMAVLPRRERNRQAAAANPENSRGKGRRGQRGKNRGCVLTAIHLNVTDLGLGYETKEELIFRYCSGSCDAAETTYDKILKNLSRNRRLVSDKVGQACCRPIAFDDDLSFLDDNLVYHILRKHSAKRCGCI
light: DIQMTQSPASLSASLEEIVTITCQASQDIGNWLAWYQQKPGKSPQLLIYGATSLADGVPSRFSGSRSGTQFSLKISRVQVEDIGIYYCLQAYNTPWTFGGGTKLELKRADAAPTVSIFPPSSEQLTSGGASVVCFLNNFYPKDINVKWKIDGSERQNGVLNSWTDQDSKDSTYSMSSTLTLTKDEYERHNSYTCEATHKTSTSPIVKSFNRGEC
notes: Hetero-tetramer of 2 light chains and 2 fusion heavy chains; expressed in COS cells, purified on protein G; also called cTrFMAb-GDNF
